From paper PMC11550248 come the findings set out here.

This assay deals with voltage-dependent anion-selective channel 1 (VDAC1), purified from rat liver mitochondria (rat) (UniProt Q9Z2L0). Description: MST; VDAC1 (138 nM) or MAVS (105 nM) fluorescently labeled and kept constant, tested protein at different concentrations; 20mM Tris-HCl, 200mM NaCl, pH 8; 30 min at 37°C in the dark; Monolith NT.115, LED 20%, IR laser 80%.

Substance “SARS-CoV-2 small envelope E-protein, purified (from UniProt P0DTC4 1-75) (natural protein)” displayed a C50 (half maximal binding) of 1100 nM.
